# Data: the supplement of paper PMC7125110
# ± gives the standard error. Fewer inactive variants are shown than the library holds.
# B1: glmS ribozyme (parent)
# chain: AUAAAAGCGCCAGAACUACAGAAAUGUAGUUGACGAGGAGGAGGUUUAUCGAAUUUUCGGCGGAUGCCUCCAAA
# Variants of: B1
# Experiment: self-cleavage kobs at 10000 uM GlcN6P; higher = faster cleavage; RNA array
# Conditions: with glucosamine-6-phosphate
# How it was run: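 Using a hybridised Cy3 probe at 37 °C, barcoded ribozyme variants transcribed in situ by E. coli RNA polymerase on sequenced MiSeq chips were monitored across tiles imaged over ~14 h. The flow contained glucosamine-6-phosphate from 40 μM to 10 mM in HEPES/KCl/Mg(OAc)2 buffer. Signals were normalised to baseline and to non-cleaving reference variants before per-tile medians were fit to one- or two-exponential decays to yield kobs. Weighted Michaelis–Menten fits across concentrations gave kcat and KM.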
row,Variant,self-cleavage kobs at 10000 uM GlcN6P [s⁻¹]
1,U30A A33G C61G C70A,< 1e-05
2,A15G A33G G59U,< 1e-05
3,A14C U30G A33G G37A C68G,< 1e-05
4,C10U C50G A53U U54G U55C C68G,6.48e-05 ± 2e-05
5,C8G C34A G66C,< 1e-05
6,G7A A33G C50A U69A C70U,9.88e-05 ± 1.8e-05
7,A15C C16A G37U G40U G62U C70A,< 1e-05
8,G9C G32C C71U,< 1e-05
9,A12G U46C,0.000349 ± 5.9e-05
10,C10G U55C,< 1e-05
11,C8G C58U C61U,< 1e-05
12,A15G C61G G62C,< 1e-05
13,A12G U46G A53U,9.96e-05 ± 1.8e-05
14,C16G C67A C70U,9.5e-05 ± 2.1e-05
15,A14U G44U U45G U46G,4.76e-05 ± 1.9e-05
16,C16U G32A U57C,2.6e-05 ± 1.3e-05
17,A15G G29A G32A A64G,0.000605 ± 0.00015
18,C11U G29U G40U G62U,< 1e-05
19,C11A A53C,2.2e-05 ± 1.1e-05
20,G9U A36G G43U U55G C68U,< 1e-05
21,C8A A48U G66U,< 1e-05

row,Variant,self-cleavage kobs at 10000 uM GlcN6P [s⁻¹]
1,A14C U31C G41A,7.28e-05 ± 1.8e-05
2,A14C U55A C71U,0.00514 ± 0.0013
3,U30C G40A U56A G62C,< 1e-05
4,A15U G40U U54A,7.33e-05 ± 1.6e-05
5,A12C G62U C71U,< 1e-05
6,A12G A42C U69A,0.000102 ± 1.5e-05
7,G9A A15G G35A A42U C70U,< 1e-05
8,G7U A12C U45C,< 1e-05
9,C10U U49G C58G,< 1e-05
10,C10U C16U A39C U65C,< 1e-05
11,G13U A36U G44U,< 1e-05
12,A12G G40A U55C,9.22e-05 ± 2e-05
13,G13U U30A C58U G59U,< 1e-05
14,C8U U30G G43C,< 1e-05
15,C16U G37A U65G,0.000183 ± 3.8e-05
16,C10U G43U G60U,< 1e-05
17,A12U G44U A52G,4.49e-05 ± 1.9e-05
18,A14C U30A U47G C70U,8.66e-05 ± 1.4e-05
19,A12G U57C C58G,2.94e-05 ± 1.4e-05
20,G7U C8A G9U U31C A33U,< 1e-05
21,C11A C58A G59A,6.59e-05 ± 1.3e-05

row,Variant,self-cleavage kobs at 10000 uM GlcN6P [s⁻¹]
1,C8A A12G A39G U45A A48C U55C,< 1e-05
2,A14C U31A U69G,5.33e-05 ± 1.5e-05
3,C16G U46G C67U,0.000334 ± 6.9e-05
4,A14G C34G G44U A52C C58A G59A G63U C71G,< 1e-05
5,C16A G29U U45G,0.0036 ± 0.00061
6,G13U A39G G63C,< 1e-05
7,U30A G32A G41C G51C C61A C71U,< 1e-05
8,G7U A12U G35U G51U G66A,< 1e-05
9,C11A A48G C50A C70A,5.38e-05 ± 1.9e-05
10,G9A U45G C68U,< 1e-05
11,U30C A36U G44U C67G,< 1e-05
12,C11G C61G,< 1e-05
13,G7A U57A C58A,< 1e-05
14,C11G G29A G41U C50G U56G C67U,< 1e-05
15,C16G C50G A52C U55A C70U,4.88e-05 ± 1.9e-05
16,G7A G35C G41U,< 1e-05
17,A15U G38U U57C C61U,< 1e-05
18,C16A U30G C34U,< 1e-05
19,A14U A42G U47C,0.000229 ± 8.1e-05
20,G9C G13C A14U U31A A48G C61A,< 1e-05
21,G7U A14U G38C U57C G60U C67U,< 1e-05

row,Variant,self-cleavage kobs at 10000 uM GlcN6P [s⁻¹]
1,A14C U65G C68U,0.000226 ± 4.7e-05
2,G29U A39C G40A G66A,6.36e-05 ± 1.3e-05
3,A14U A42U U57C,< 1e-05
4,C11G G38A A48C G60C G62C C68U,< 1e-05
5,C11U U31C A42G A53U,0.000372 ± 8e-05
6,C8G G43U G51U U54G,< 1e-05
7,C10A G59U,7.46e-05 ± 7.9e-06
8,C10U C11U G66C,< 1e-05
9,A12G U30G C58A,0.000483 ± 9.8e-05
10,A15C A42G U47G A53G,0.000696 ± 9.1e-05
11,C11U G60A C68G,5.38e-05 ± 1.9e-05
12,G13U C34U G63U,< 1e-05
13,A6U G44U C71A,< 1e-05
14,G29U A48G G51A,< 1e-05
15,C8U A36U U45A,< 1e-05
16,G9C U54G,< 1e-05
17,C8A A14U A39C,< 1e-05
18,C11U U47A U69A,4.5e-05 ± 1.5e-05
19,C8G A15U A39U G51A A52G G60U,< 1e-05
20,U30C G32C G40A,6.96e-05 ± 1.4e-05
